Reference: patent US20070224205A1

Target: Toll-like Receptor 5 (UniProt O60602)
Assay: cell-based or functional assay

B1: STF2.HA1-1His(PR8), produced in Baculovirus (protein)
chain: AQVINTNSLSLLTQNNLNKSQSALGTAIERLSSGLRINSAKDDAAGQAIANRFTANIKGLTQASRNANDGISIAQTTEGALNEINNNLQRVRELAVQSANSTNSQSDLDSIQAEITQRLNEIDRVSGQTQFNGVKVLAQDNTLTIQVGANDGETIDIDLKQINSQTLGLDSLNVQKAYDVKDTAVTTKAYANNGTTLDVSGLDDAAIKAATGGTNGTASVTGGAVKFDADNNKYFVTIGGFTGADAAKNGDYEVNVATDGTVTLAAGATKTTMPAGATTKTEVQELKDTPAVVSADAKNALIAGGVDATDANGAELVKMSYTDKNGKTIEGGYALKAGDKYYAADYDEATGAIKAKTTSYTAADGTTKTAANQLGGVDGKTEVVTIDGKTYNASKAAGHDFKAQPELAEAAAKTTENPLQKIDAALAQVDALRSDLGAVQNRFNSAITNLGNTVNNLSEARSRIEDSDYATEVSNMSRAQILQQAGTSVLAQANQVPQNVLSLLASGSGSGSSHNGKLCRLKGIAPLQLGKCNIAGWLLGNPECDPLLPVRSWSYIVETPNSENGICYPGDFIDYEELREQLSSVSSFERFEIFPKESSWPNHNTNGVTAACSHEGKSSFYRNLLWLTEKEGSYPKLKNSYVNKKGKEVLVLWGIHHPPNSKEQQNLYQNENAYVSVVTSNYNRRFTPEIAERPKVRDQAGRMNYYWTLLKPGDTIIFEANGNLIAPMYAFALSRGFGSGIITSNASMHECNTKCQTPLGAINSSLPYQNIHPVTIGECPKYVRHHHHHH
**Q.** For B1, which TLR activity (EC50, ng/ml); IL-8 secretion by HEK293 cells is on record?
**A.** The TLR activity (EC50, ng/ml); IL-8 secretion by HEK293 cells was 3 ng/mL.
